Values of other authors, collected in publication PMC6653659.

Biological target: glucocorticoid receptor LBD (Homo sapiens) (UniProt P04150)

Kd: 1.5 µM
Substance: glucocorticoid receptor LBD (from UniProt P04150)
